Measured values: patent US9611296B2, “Peptides that bind to amino-truncated amyloid-beta-peptide and use of said peptides” (FORSCHUNGSZENTRUM JUELICH GMBH, priority 2012, dated 2017)
Square brackets hold non-standard residues; d marks the D form. Ends that are not written are not given here.

Biological target: T1, Aβ plaques (Homo sapiens, UniProt P05067)
T1 construct: have an increased Aβ 1-42 expression and plaque formation; from tissue; host or cells: frontal brain slices of transgenic Tg2576 mice aged 10 to 11 months
Experiment: Ex vivo histological staining of plaques in frontal brain slices of transgenic Tg2576 mice with FITC-labelled D-peptides (fluorescence microscopy, Congo red control)
Type: binding
Settings: frontal brain slices (cortex) of Tg2576 mice aged 10 to 11 months; for region of the plaques stained (more intensely): FITC-labelled peptide
Excerpt: The binding properties of the available peptides to Aβ plaques were investigated. For staining frontal brain slices, use was made of preparations of transgenic Tg2576 mice aged from 10 to 11 months, which due to the human APP gene bearing the Swedish mutation have an increased Aβ 1-42 expression and plaque formation. In these mice, it was also possible to detect AβpE3-x as a plaque constituent.
For the tests, the peptides were synthetically produced and labelled by a commercial supplier, A test was then carried out, ex vivo, to determine the regions of the plaques to which binding had mainly taken place. It must be assumed here that Aβ plaques consist of different Aβ species, such as, for example, Aβ1-40, 1-42 and AβpE3-x.
All the peptides are combined with fluorescein isothiocyanate (FITC) for detection by means of fluorescence microscopy.
As a further control, the same tests were carried out after Congo red staining, which served to verify the plaque structures (bottom image in each case). It must be assumed that the plaques are composed of different Aβ isoforms (Aβ 1-40, 1-42, AβpE3-x). Slices from wild-type animals without plaque formation were also treated. In these tests, no Congo red or fluorescein fluorescence could be detected (data not shown).

T1 sequence (P05067 672-713 limits assumed): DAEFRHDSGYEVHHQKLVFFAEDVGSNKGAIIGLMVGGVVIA

Row | Sequence | region of the plaques stained (more intensely) | type of plaques stained by the peptide
1 | AGERLKFIDEHV ([dA]G[dE][dR][dL][dK][dF][dI][dD][dE][dH][dV]) [D6] | ring-shaped structures around the inner core of the plaques were stained more intensely | only plaques having a relatively dense structure, consisting of Aβ fibrils, were stained, but not small and diffuse plaques
2 | HTRFEYYVYHMS ([dH][dT][dR][dF][dE][dY][dY][dV][dY][dH][dM][dS]) [D7] | at the inner core of the plaques | stained only dense structures
3 | KMEHPNHPPPQR ([dK][dM][dE][dH][dP][dN][dH][dP][dP][dP][dQ][dR]) [D4, dodecameric D-peptide selected by mirror image phage display against aggregation-nucleus-free AβpE3-x] | ring-shaped structures around the inner core of the plaques were stained more intensely | only plaques having a relatively dense structure, consisting of Aβ fibrils, were stained, but not small and diffuse plaques
4 | NGAPNKIPRDRE ([dN]G[dA][dP][dN][dK][dI][dP][dR][dD][dR][dE]) [D5, dodecameric D-peptide selected by mirror image phage display against aggregation-nucleus-free AβpE3-x] | ring-shaped structures around the inner core of the plaques were stained more intensely | only plaques having a relatively dense structure, consisting of Aβ fibrils, were stained, but not small and diffuse plaques
